Experiment [1] has as its target T1, hemoglobin (Sigma).
T1 construct: Immobilized by amine coupling on a CM5 chip (ca. 5000 RU)
Kind of experiment: not stated there (affinity measured by SPR in Example 5). The procedure: (§1) The binding affinity of the anticalin HbgA to hemoglobin was determined by surface plasmon resonance (SPR) using the BIAcore X system (BIACORE). Hemoglobin (100 μg/ml, dissolved in 10 mM maleate, pH 6.0) was immobilized at an amount of ca. 5000 resonance units (RU) to the surface of one flow channel on a CM5 sensor chip (BIACORE) using the amine coupling kit (BIACORE) according to the manufacturer's instructions. Unreacted groups on the biosensor chip surface were blocked with 1 M ethanolamine hydrochloride-NaOH pH 8.5. […] The concentration of HbgA and also of ApoD were determined by absorption at 280 nm using a calculated extinction coefficient of 54600 M⁻¹ cm⁻¹ and 34150 M⁻¹ cm⁻¹, respectively (Gill and von Hippel, Anal. Biochem. 182 (1989), 319-326). […] The binding of HbgA to hemoglobin, immobilized on the sensor chip, was measured by applying each 75 μl of these protein solutions. Steady state resonance values were detected for the channel with the immobilized hemoglobin for each concentration applied. For each measurement the resonance value that was due to buffer effects and simultaneously measured for the second channel of the sensor chip, was subtracted, and the resulting difference value was plotted against the applied concentration. […]
In general terms: Surface plasmon resonance follows binding to a sensor surface in real time, without labels.

Experiment [2] concerns the target T2, bovine serum albumin (BSA, Sigma) (bovine, UniProt P02769 25-607).
T2 construct: Immobilized by amine coupling on a CM5 chip (ca. 5000 RU)
Put plainly: SPR (BIAcore X), BSA immobilized on CM5 chip, steady state.

The target in experiment [3] is T1, hemoglobin (Sigma). Put plainly: SPR (BIAcore X), hemoglobin immobilized on CM5 chip, steady-state values fitted. The procedure:
as §1

This passage reports Ka, binding result and Kd results from patent US20050106660A1 (Pieris, published 2005).

T2 sequence (P02769 25-607 limits assumed): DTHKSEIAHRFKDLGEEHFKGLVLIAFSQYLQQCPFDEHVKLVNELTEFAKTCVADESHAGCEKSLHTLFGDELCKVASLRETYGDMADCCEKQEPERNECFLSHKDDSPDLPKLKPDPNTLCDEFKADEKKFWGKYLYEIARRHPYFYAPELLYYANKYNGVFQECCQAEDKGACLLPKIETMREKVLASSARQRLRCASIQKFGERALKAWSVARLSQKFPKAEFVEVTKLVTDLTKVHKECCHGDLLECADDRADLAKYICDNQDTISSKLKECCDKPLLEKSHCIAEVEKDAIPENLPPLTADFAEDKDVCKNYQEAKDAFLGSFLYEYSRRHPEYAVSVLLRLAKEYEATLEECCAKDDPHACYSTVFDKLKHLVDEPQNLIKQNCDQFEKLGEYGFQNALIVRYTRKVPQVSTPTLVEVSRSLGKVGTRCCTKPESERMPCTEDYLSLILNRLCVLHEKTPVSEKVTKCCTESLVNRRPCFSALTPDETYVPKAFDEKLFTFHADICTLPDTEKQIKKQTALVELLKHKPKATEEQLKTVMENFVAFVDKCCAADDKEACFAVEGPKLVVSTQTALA

B1: anticalin HbgA (mutein of human apolipoprotein D), purified, with C-terminal Strep-Tag II (designed binder)
chain: QAFHLGKCPNPPVQENFDVNKYPGRWYEIEKIPQFVWMGRCIQANYSLMENGKIKVLNQFLRITLDVWQIEGEATPVNLTEPAKLEVKEGLGDPSAPYWILATDYENYALVYSCESFLWLFHWDFAWILARNVALPPETVDSLKNILTSNNIDVKKMTVTDQVNCPKLS
notes: The amber codon at position 34 was replaced by a Gln codon; Scaffold carries Leu23Pro, Cys116Ser, Pro133Val, Asn134Ala; also called mutein HbgA; not shown: Strep-Tag II fused to the C-terminus (expression from pApoD10)
B1: in the experiment with hemoglobin (Sigma) [1], the Ka was > 1e+06 M⁻¹. The binding result in experiment [2] is given as “no binding”. Besides, in the experiment with hemoglobin (Sigma) [3], the Kd came out at 2200 nM.

By Kd is commonly meant a measure of binding affinity in units of concentration.
